Results published in patent publication US20070041901, “Stabilized aptamers to PSMA and their use as prostate cancer therapeutics” (published 2007).

Legend:
[1] = biological target: T1, PSMA (prostate-specific membrane antigen) extracellular domain (Homo sapiens, UniProt Q04609 SEQ:23-728); assay: filter; dot blot; max bound 22%
Procedure: (§1) Dot Blot Binding Analysis. Dot blot binding assays were performed throughout the selections to monitor the protein binding affinity of the pools. For initial pool screening, trace ³²P-labeled pool RNA was combined with PSMA and incubated at room temperature for 30 min in 1×SHMCK buffer pH 7.4 (20 mM Hepes pH 7.4, 120 mM NaCl, 5 mM KCl, 1 mM MgCl₂, […]) plus 0.1 mg/mL tRNA in a final volume of 30 μl. The mixture was applied to a dot blot apparatus (Schleicher and Schuell Minifold-1 Dot Blot, Acrylic, Keene, N.H.), assembled (from top to bottom) with nitrocellulose, nylon, and gel blot membranes. RNA that is bound to protein is captured on the nitrocellulose filter; whereas the non-protein bound RNA is captured on the nylon filter. […] The Round 9 pool was cloned and screened in a single point dot blot assay using 100 nM PSMA (0 nM PSMA was used as a negative control). Clone transcripts were 5′end labeled with ³²-P ATP. Likely binders were than assayed for KD determination by the blot assay conditions described directly above, but without tRNA, using an 8 point PSMA titration with a constant RNA concentration. […] Both of the clones screened were unique sequences in the Round 9 selection pool.
(§2) In order to identify the core structural elements required for ARC955 binding to PSMA, the 3′-boundaries of the clone was determined through alkaline hydrolysis.

[2] = biological target: T1, PSMA (prostate-specific membrane …); assay: filter; dot blot; max bound 52%
Procedure: as §1, §2

[3] = biological target: T1, PSMA (prostate-specific membrane …); assay: filter; no binding in dot blot
Procedure: as §1, §2

[4] = biological target: T1, PSMA (prostate-specific membrane …); assay: filter; dot blot without tRNA; details: hairpin with conserved 16-nt loop, A-rich asymmetric bulge
[5] = biological target: T1, PSMA (prostate-specific membrane …); assay: inhibition; NAALADase inhibition, 40 mM Tris pH 7.4, 0.1 mM ZnSO4, 37 C; details: hairpin with conserved 16-nt loop, A-rich asymmetric bulge
[6] = biological target: T1, PSMA (prostate-specific membrane …); assay: filter; dot blot, 1x SHMCK pH 7.4 (1 mM Mg, Ca), room temp, no tRNA; details: label: 32P 5'-end
[7] = biological target: T1, PSMA (prostate-specific membrane …); assay: FP filter; dot blot, nitrocellulose; max bound 33%
Procedure: as §1, §2

T1 sequence (Q04609 45-750): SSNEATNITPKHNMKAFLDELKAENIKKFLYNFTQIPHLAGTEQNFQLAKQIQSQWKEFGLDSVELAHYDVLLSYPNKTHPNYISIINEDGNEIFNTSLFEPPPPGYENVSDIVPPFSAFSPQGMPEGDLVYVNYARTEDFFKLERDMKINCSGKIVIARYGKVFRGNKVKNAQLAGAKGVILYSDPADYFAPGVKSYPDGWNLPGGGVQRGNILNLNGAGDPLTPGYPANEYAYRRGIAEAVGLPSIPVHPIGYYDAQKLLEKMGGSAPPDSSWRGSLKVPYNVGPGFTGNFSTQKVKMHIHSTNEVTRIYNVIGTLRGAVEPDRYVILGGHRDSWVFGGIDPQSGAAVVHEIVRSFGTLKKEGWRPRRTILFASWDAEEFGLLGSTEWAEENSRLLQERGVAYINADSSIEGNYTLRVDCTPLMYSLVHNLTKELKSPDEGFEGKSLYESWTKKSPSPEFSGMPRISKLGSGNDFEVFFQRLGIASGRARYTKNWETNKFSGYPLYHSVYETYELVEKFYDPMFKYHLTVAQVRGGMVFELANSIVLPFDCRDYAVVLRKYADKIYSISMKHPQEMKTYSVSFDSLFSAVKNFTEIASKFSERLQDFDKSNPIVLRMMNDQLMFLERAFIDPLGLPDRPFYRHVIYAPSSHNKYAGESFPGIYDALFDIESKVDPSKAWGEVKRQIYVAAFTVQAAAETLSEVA

CUACUGGGUGGCUGGGAGGGGAAGAGGGAGUAG (ssRNA, 2'-OMe A, C, U; 2'-OH G (rGmH)) [ARC1089]
Kd [1]: 9.3 nM

AGAGGAGAGAACGUUCUACUAUGGGUGGCUGGGAGGGG (ssRNA, 2'-OMe A, C, U; 2'-OH G (rGmH)) [ARC1091]
Kd [2]: 3.1 nM

CUACUACACAUGGGUCGGGUGAGUGGCAAAGGAAUAGUAG (ssRNA, 2'-OMe A, C, U; 2'-OH G (rGmH)) [ARC725]
binding result [3]: no binding

GGAGGACCGAAAAAGACCUGACUUCUAUACUAAGUCUACGUUCCUCCA (ssRNA, 2'-F C and U; 2'-OH A and G) [ARC591]
Kd [4]: 3.4 nM
IC50 [5]: 6.7 nM

B1: ARC955 (G2) (ssRNA)
RNA: GGGAGAGGAGAGAACGUUCUACUAUGGGUGGCUGGGAGGGGAAGAGGGAGUAGGUCGAUCGAUCGAUCAUCGAUG
modifications: 2'-OMe A, C, U; 2'-OH G (rGmH)
Kd [6]: 9 nM

GGGUGGCUGGGAGGGGAAGAGGG (ssRNA, 2'-OMe A, C, U; 2'-OH G (rGmH)) [ARC1088]
Kd [7]: 2.1 nM

B2: ARC956 (G8) (ssRNA)
RNA: GGGGAGAGGAGAGAACGUUCUACACAUGGGUCGGGUGAGUGGCAAAGGAAUAGGUCGAUCGAUCGAUCAUCGAUG
modifications: 2'-OMe A, C, U; 2'-OH G (rGmH)
Kd [6]: 16 nM
